In PMC11588112:

Legend:
[1] = target: prefusion-stabilized mumps fusion (F) glycoprotein trimer, genotype G (V206C-A223C with 476-GCN4 and 101KRF-101GGG) (mumps virus, genotype G); assay: negative-stain EM; purified glycoprotein designs alone, 2D class averages
[2] = target: prefusion-stabilized mumps fusion (F) glycoprotein trimer, genotype G (V206C-A223C with 476-GCN4 and 101KRF-101GGG) (mumps virus, genotype G); assay: crystal structure
[3] = target: mumps postfusion F glycoprotein trimer (unstabilized 476-GCN4) (mumps virus); assay: negative-stain EM; purified glycoprotein designs alone, 2D class averages

Substance: prefusion-stabilized mumps fusion (F) glycoprotein trimer, genotype G (V206C-A223C with 476-GCN4 and 101KRF-101GGG)
- stoichiometry N [1]: 3
- stoichiometry N [2]: 3

Substance: mumps postfusion F glycoprotein trimer (unstabilized 476-GCN4)
- stoichiometry N [3]: 3
